Where a chain is given by its changes, count along the chain named. Names and notes keep the numbering of the source.
B1: 5FW-EmrE^W63 (EmrE W31F/W45F/W76F labeled with 5-fluoro-tryptophan at Trp63) (natural protein, E. coli)
chain: MNPYIYLGGAILAEVIGTTLMKFSEGFTRLFPSVGTIICYCASFFLLAQTLAYIPTGIAYAIWSGVGIVLISLLSFGFFGQRLDLPAIIGMMLICAGVLIINLLSRSTPH
modifications: 5-fluoro-tryptophan at Trp63
notes: EmrE, small multidrug resistance (SMR) transporter of E. coli; only Trp63 kept of the four tryptophans; also called 5FW-labeled EmrE^W63; source: E. coli BL21(DE3), M9 medium with glyphosate and fluoro-indole, purified (amylose column, TEV cleavage, SEC in DDM)
B2: 6FW-EmrE^W63 (EmrE W31F/W45F/W76F labeled with 6-fluoro-tryptophan at Trp63) (natural protein, E. coli)
chain: B1 chain
modifications: 6-fluoro-tryptophan at Trp63
notes: EmrE, small multidrug resistance (SMR) transporter of E. coli; only Trp63 kept of the four tryptophans; also called 6FW-labeled EmrE^W63; source: E. coli BL21(DE3), M9 medium with glyphosate and fluoro-indole, purified (amylose column, TEV cleavage, SEC in DDM)
B3: 5FW-EmrE^(W63, E14Q) (natural protein, E. coli)
chain: B1 chain with E14Q
modifications: 5-fluoro-tryptophan at Trp63
notes: EmrE, small multidrug resistance (SMR) transporter of E. coli; EmrE^W63 background with E14Q; also called Gln14 mutant monomer; source: E. coli BL21(DE3), M9 medium with glyphosate and fluoro-indole, purified (amylose column, TEV cleavage, SEC in DDM)
B4: 5FW-EmrE^(W63, L51I) (natural protein, E. coli)
chain: B1 chain with L51I
modifications: 5-fluoro-tryptophan at Trp63
notes: EmrE, small multidrug resistance (SMR) transporter of E. coli; EmrE^W63 background with L51I; source: E. coli BL21(DE3), M9 medium with glyphosate and fluoro-indole, purified (amylose column, TEV cleavage, SEC in DDM)

How the values were obtained:
Assay in all cases: 19F NMR spectroscopy (one-dimensional spectra and 19F/19F ZZ-exchange/NOESY); proteins alone or mixed in DDM (1 h, 37 °C, 10 mM DTT) at stated molar ratios, reconstituted in 14:0-PC/6:0-PC isotropic bicelles (q = 0.33); pH 5.6; 37 °C; 1-2 mM protein; 150 mM Na2HPO4, 20 mM NaCl
[1] = target: T1, EmrE^(W63, L51I), natural abundance (E. coli, UniProt P23895 1-110, W31F | W45F | W76F | L51I); settings: both partners purified
T1 construct: EmrE, small multidrug resistance (SMR) transporter of E. coli; EmrE^W63 background with L51I; also called natural abundance EmrE^(W63, L51I); source: E. coli BL21(DE3), purified (amylose column, TEV cleavage, SEC in DDM)
T1 sequence: B1 chain with L51I

[2] = target: the molecule itself
[3] = target: T2, EmrE^W63 (EmrE W31F/W45F/W76F), natural abundance (E. coli, UniProt P23895 1-110, W31F | W45F | W76F); settings: both partners purified
T2 construct: EmrE, small multidrug resistance (SMR) transporter of E. coli; only Trp63 kept of the four tryptophans; NMR-silent partner in the mixed (heterodimer) samples; reconstituted in 14:0-PC/6:0-PC bicelles; also called unlabeled EmrE^W63; natural abundance EmrE^W63; source: E. coli BL21(DE3), LB medium, purified (amylose column, TEV cleavage, SEC in DDM)
T2 sequence: B1 chain

[4] = target: T3, EmrE^(W63, E14Q), natural abundance (E. coli, UniProt P23895 1-110, W31F | W45F | W76F | E14Q); settings: both partners purified
T3 construct: EmrE, small multidrug resistance (SMR) transporter of E. coli; EmrE^W63 background with E14Q; also called natural abundance EmrE^(W63, E14Q); source: E. coli BL21(DE3), purified (amylose column, TEV cleavage, SEC in DDM)
T3 sequence: B1 chain with E14Q

[5] = target: B2; settings: both partners purified

| Binder | binding result [1] | binding result [2] | binding result [3] | binding result [4] | binding result [5] |
| --- | --- | --- | --- | --- | --- |
| B1 | binds | binds | binds | binds | – |
| B2 | – | binds | binds | – | – |
| B3 | – | binds | binds | – | – |
| B4 | – | binds | binds | – | binds |

Source: PMC12464994, “Quantification of Membrane Protein Conformational Free Energy from Mutations and a Single Atom” (Journal of the American Chemical Society, 2025)
